Assay results as given in IntAct's records for PubMed 31515488.

B1: Isoform 1 of DNA mismatch repair protein Mlh1 (Homo sapiens), P40692-1 (parent)
chain: MSFVAGVIRRLDETVVNRIAAGEVIQRPANAIKEMIENCLDAKSTSIQVIVKEGGLKLIQIQDNGTGIRKEDLDIVCERFTTSKLQSFEDLASISTYGFRGEALASISHVAHVTITTKTADGKCAYRASYSDGKLKAPPKPCAGNQGTQITVEDLFYNIATRRKALKNPSEEYGKILEVVGRYSVHNAGISFSVKKQGETVADVRTLPNASTVDNIRSIFGNAVSRELIEIGCEDKTLAFKMNGYISNANYSVKKCIFLLFINHRLVESTSLRKAIETVYAAYLPKNTHPFLYLSLEISPQNVDVNVHPTKHEVHFLHEESILERVQQHIESKLLGSNSSRMYFTQTLLPGLAGPSGEMVKSTTSLTSSSTSGSSDKVYAHQMVRTDSREQKLDAFLQPLSKPLSSQPQAIVTEDKTDISSGRARQQDEEMLELPAPAEVAAKNQSLEGDTTKGTSEMSEKRGPTSSNPRKRHREDSDVEMVEDDSRKEMTAACTPRRRIINLTSVLSLQEEINEQGHEVLREMLHNHSFVGCVNPQWALAQHQTKLYLLNTTKLSEELFYQILIYDFANFGVLRLSEPAPLFDLAMLALDSPESGWTEEDGPKEGLAEYIVEFLKKKAEMLADYFSLEIDEEGNLIGLPLLIDNYVPPLEGLPIFILRLATEVNWDEEKECFESLSKECAMFYSIRKQYISEESTLSGQQSEVPGSIPNSWKWTVEHIVYKALRSHILPPKHFTEDGNILQLANLPDLYKVFERC
partner: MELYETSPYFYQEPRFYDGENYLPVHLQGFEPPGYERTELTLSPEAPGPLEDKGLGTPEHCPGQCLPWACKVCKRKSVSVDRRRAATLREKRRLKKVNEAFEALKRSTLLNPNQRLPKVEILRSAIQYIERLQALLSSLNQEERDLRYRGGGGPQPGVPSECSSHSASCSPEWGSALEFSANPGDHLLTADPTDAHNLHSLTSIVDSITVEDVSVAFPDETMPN
B2: Membrane protein FAM174A (Homo sapiens), Q8TBP5 (parent)
chain: MKASQCCCCLSHLLASVLLLLLLPELSGPLAVLLQAAEAAPGLGPPDPRPRTLPPLPPGPTPAQQPGRGLAEAAGPRGSEGGNGSNPVAGLETDDHGGKAGEGSVGGGLAVSPNPGDKPMTQRALTVLMVVSGAVLVYFVVRTVRMRRRNRKTRRYGVLDTNIENMELTPLEQDDEDDDNTLFDANHPRR
partner: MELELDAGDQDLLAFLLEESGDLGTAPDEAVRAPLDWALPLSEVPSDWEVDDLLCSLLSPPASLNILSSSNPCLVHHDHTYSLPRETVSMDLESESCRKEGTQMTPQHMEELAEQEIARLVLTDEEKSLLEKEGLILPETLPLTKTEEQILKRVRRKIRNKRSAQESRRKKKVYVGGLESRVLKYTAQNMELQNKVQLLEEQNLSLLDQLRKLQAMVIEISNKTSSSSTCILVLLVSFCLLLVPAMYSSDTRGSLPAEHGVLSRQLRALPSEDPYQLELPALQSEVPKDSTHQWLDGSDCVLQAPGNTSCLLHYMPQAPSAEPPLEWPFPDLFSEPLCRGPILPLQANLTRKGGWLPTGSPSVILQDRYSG
B3: Cyclin-D1-binding protein 1 (Homo sapiens), O95273 (parent)
chain: MASATAPAAAVPTLASPLEQLRHLAEELRLLLPRVRVGEAQETTEEFNREMFWRRLNEAAVTVSREATTLTIVFSQLPLPSPQETQKFCEQVHAAIKAFIAVYYLLPKDQGITLRKLVRGATLDIVDGMAQLMEVLSVTPTQSPENNDLISYNSVWVACQQMPQIPRDNKAAALLMLTKNVDFVKDAHEEMEQAVEECDPYSGLLNDTEENNSDNHNHEDDVLGFPSNQDLYWSEDDQELIIPCLALVRASKACLKKIRMLVAENGKKDQVAQLDDIVDISDEISPSVDDLALSIYPPMCHLTVRINSAKLVSVLKKALEITKASHVTPQPEDSWIPLLINAIDHCMNRIKELTQSELEL
partner: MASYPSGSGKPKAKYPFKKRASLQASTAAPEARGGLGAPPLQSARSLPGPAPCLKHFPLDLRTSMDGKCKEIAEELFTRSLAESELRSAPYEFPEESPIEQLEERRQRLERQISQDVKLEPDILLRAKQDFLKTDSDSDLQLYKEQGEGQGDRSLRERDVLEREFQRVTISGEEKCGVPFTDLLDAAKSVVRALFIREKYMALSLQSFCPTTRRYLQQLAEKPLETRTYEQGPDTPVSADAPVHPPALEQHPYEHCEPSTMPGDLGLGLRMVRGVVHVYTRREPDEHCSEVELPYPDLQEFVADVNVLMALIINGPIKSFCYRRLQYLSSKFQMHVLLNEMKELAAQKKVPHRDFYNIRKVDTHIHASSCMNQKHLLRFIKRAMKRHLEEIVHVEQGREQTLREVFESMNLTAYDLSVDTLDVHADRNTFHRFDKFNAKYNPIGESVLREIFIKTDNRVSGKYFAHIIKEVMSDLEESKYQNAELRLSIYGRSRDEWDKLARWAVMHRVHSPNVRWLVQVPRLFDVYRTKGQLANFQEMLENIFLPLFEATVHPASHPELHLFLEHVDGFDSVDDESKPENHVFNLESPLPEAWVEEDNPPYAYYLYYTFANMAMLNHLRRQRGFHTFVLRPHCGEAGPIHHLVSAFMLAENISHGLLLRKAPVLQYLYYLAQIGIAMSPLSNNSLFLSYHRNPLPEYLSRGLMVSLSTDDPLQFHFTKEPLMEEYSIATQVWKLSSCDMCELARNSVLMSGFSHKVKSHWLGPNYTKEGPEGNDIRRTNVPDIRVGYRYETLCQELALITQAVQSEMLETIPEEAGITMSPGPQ
B4: E3 ubiquitin-protein ligase MYLIP (Homo sapiens), Q8WY64 (parent)
chain: MLCYVTRPDAVLMEVEVEAKANGEDCLNQVCRRLGIIEVDYFGLQFTGSKGESLWLNLRNRISQQMDGLAPYRLKLRVKFFVEPHLILQEQTRHIFFLHIKEALLAGHLLCSPEQAVELSALLAQTKFGDYNQNTAKYNYEELCAKELSSATLNSIVAKHKELEGTSQASAEYQVLQIVSAMENYGIEWHSVRDSEGQKLLIGVGPEGISICKDDFSPINRIAYPVVQMATQSGKNVYLTVTKESGNSIVLLFKMISTRAASGLYRAITETHAFYRCDTVTSAVMMQYSRDLKGHLASLFLNENINLGKKYVFDIKRTSKEVYDHARRALYNAGVVDLVSRNNQSPSHSPLKSSESSMNCSSCEGLSCQQTRVLQEKLRKLKEAMLCMVCCEEEINSTFCPCGHTVCCESCAAQLQSCPVCRSRVEHVQHVYLPTHTSLLNLTVI
partner: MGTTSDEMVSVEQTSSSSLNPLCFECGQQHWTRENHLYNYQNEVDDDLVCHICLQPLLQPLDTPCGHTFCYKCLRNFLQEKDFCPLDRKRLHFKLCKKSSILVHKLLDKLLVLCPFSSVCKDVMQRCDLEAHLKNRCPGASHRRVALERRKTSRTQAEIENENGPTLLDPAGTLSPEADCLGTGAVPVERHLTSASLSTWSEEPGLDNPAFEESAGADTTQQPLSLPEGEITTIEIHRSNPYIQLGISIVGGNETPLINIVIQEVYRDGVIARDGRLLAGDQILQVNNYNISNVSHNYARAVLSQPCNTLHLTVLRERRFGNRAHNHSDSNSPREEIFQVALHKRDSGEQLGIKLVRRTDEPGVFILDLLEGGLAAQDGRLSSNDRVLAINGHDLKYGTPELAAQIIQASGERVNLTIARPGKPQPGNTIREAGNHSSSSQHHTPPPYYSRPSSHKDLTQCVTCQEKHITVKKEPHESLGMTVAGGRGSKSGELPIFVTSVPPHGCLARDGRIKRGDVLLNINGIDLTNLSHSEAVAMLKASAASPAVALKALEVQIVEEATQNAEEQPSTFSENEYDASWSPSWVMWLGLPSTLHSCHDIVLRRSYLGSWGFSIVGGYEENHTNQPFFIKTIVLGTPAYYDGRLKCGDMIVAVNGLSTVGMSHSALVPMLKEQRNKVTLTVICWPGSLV
B5: Src kinase-associated phosphoprotein 1 (Homo sapiens), Q86WV1 (parent)
chain: MQAAALPEEIRWLLEDAEEFLAEGLRNENLSAVARDHRDHILRGFQQIKARYYWDFQPQGGDIGQDSSDDNHSGTLGLSLTSDAPFLSDYQDEGMEDIVKGAQELDNVIKQGYLEKKSKDHSFFGSEWQKRWCVVSRGLFYYYANEKSKQPKGTFLIKGYGVRMAPHLRRDSKKESCFELTSQDRRSYEFTATSPAEARDWVDQISFLLKDLSSLTIPYEEDEEEEEKEETYDDIDGFDSPSCGSQCRPTILPGSVGIKEPTEEKEEEDIYEVLPDEEHDLEEDESGTRRKGVDYASYYQGLWDCHGDQPDELSFQRGDLIRILSKEYNMYGWWVGELNSLVGIVPKEYLTTAFEVEER
B6: G patch domain and ankyrin repeat-containing protein 1 (Homo sapiens), O95872 (parent)
chain: MSRPLLITFTPATDPSDLWKDGQQQPQPEKPESTLDGAAARAFYEALIGDESSAPDSQRSQTEPARERKRKKRRIMKAPAAEAVAEGASGRHGQGRSLEAEDKMTHRILRAAQEGDLPELRRLLEPHEAGGAGGNINARDAFWWTPLMCAARAGQGAAVSYLLGRGAAWVGVCELSGRDAAQLAEEAGFPEVARMVRESHGETRSPENRSPTPSLQYCENCDTHFQDSNHRTSTAHLLSLSQGPQPPNLPLGVPISSPGFKLLLRGGWEPGMGLGPRGEGRANPIPTVLKRDQEGLGYRSAPQPRVTHFPAWDTRAVAGRERPPRVATLSWREERRREEKDRAWERDLRTYMNLEF
B7: Protein-associating with the carboxyl-terminal domain of ezrin (Homo sapiens), Q8IZE3 (parent)
chain: MGSENSALKSYTLREPPFTLPSGLAVYPAVLQDGKFASVFVYKRENEDKVNKAAKHLKTLRHPCLLRFLSCTVEADGIHLVTERVQPLEVALETLSSAEVCAGIYDILLALIFLHDRGHLTHNNVCLSSVFVSEDGHWKLGGMETVCKVSQATPEFLRSIQSIRDPASIPPEEMSPEFTTLPECHGHARDAFSFGTLVESLLTILNEQVSADVLSSFQQTLHSTLLNPIPKCRPALCTLLSHDFFRNDFLEVVNFLKSLTLKSEEEKTEFFKFLLDRVSCLSEELIASRLVPLLLNQLVFAEPVAVKSFLPYLLGPKKDHAQGETPCLLSPALFQSRVIPVLLQLFEVHEEHVRMVLLSHIEAYVEHFTQEQLKKVILPQVLLGLRDTSDSIVAITLHSLAVLVSLLGPEVVVGGERTKIFKRTAPSFTKNTDLSLEDSPMCVVCSHHSQISPILENPFSSIFPKCFFSGSTPINSKKHIQRDYYNTLLQTGDPFSQPIKFPINGLSDVKNTSEDSENFPSSSKKSEEWPDWSEPEEPENQTVNIQIWPREPCDDVKSQCTTLDVEESSWDDCEPSSLDTKVNPGGGITATKPVTSGEQKPIPALLSLTEESMPWKSSLPQKISLVQRGDDADQIEPPKVSSQERPLKVPSELGLGEEFTIQVKKKPVKDPEMDWFADMIPEIKPSAAFLILPELRTEMVPKKDDVSPVMQFSSKFAAAEITEGEAEGWEEEGELNWEDNNW
partner: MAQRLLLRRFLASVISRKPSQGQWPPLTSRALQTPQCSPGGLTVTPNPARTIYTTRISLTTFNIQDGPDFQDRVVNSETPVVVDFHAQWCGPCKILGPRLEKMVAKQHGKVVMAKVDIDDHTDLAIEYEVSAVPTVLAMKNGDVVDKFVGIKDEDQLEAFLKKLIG

Variants of: B1
Details: with myog_human MYOG

effect of a mutation on the interaction | Variant
with no effect | R69K

Variants of: B1
Details: with myog_human MYOG
Remark: another data set of the same source

effect of a mutation on the interaction | Variant
with no effect | S106N
with no effect | V213M
with no effect | V384D
with no effect | A441T

Variants of: B2
Details: with creb3_human CREB3, O43889

effect of a mutation on the interaction | Variant
with no effect | D95G

Variants of: B3
Details: with ampd2_human AMPD2, Q01433

effect of a mutation on the interaction | Variant
disrupting interaction strength | I277T

Variants of: B4
Details: with lnx2_human LNX2, Q8N448

effect of a mutation on the interaction | Variant
with no effect | N342S

Variants of: B5
Details: with eeig1_human EEIG1, Q5T9C2
Sequence of eeig1_human EEIG1, Q5T9C2 (Q5T9C2 whole entry): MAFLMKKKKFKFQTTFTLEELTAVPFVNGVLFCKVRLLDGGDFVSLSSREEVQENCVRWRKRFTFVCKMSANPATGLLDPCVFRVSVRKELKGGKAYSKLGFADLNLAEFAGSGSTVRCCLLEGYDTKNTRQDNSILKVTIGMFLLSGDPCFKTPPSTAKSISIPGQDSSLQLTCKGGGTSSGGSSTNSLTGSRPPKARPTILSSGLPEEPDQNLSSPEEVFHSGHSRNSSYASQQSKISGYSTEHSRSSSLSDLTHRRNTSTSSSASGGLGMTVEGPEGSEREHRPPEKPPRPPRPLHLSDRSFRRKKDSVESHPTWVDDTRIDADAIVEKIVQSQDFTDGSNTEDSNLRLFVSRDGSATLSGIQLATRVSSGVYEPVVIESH

effect of a mutation on the interaction | Variant
with no effect | S242G

Variants of: B5
Details: with pram_human PRAM1, Q96QH2
Sequence of pram_human PRAM1, Q96QH2 (Q96QH2 whole entry): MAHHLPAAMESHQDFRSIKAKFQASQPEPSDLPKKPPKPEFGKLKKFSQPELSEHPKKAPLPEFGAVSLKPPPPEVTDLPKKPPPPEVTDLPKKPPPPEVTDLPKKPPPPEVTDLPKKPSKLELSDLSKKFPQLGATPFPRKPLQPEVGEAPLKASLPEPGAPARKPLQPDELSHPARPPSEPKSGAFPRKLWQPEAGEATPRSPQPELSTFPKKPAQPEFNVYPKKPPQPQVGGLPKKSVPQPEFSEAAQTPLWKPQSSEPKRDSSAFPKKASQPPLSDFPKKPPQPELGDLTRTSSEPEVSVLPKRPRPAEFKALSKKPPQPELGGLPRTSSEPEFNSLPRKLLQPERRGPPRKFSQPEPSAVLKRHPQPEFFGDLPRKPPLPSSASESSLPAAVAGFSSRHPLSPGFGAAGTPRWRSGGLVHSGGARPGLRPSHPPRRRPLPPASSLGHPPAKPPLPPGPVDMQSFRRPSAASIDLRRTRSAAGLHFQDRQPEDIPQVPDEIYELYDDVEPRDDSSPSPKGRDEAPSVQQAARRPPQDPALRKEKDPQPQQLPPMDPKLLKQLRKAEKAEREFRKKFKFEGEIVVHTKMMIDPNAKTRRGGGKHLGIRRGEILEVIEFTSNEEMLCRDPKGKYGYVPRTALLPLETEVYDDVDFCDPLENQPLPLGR

effect of a mutation on the interaction | Variant
with no effect | G161S

Variants of: B6
Details: with pnma1_human PNMA1, Q8ND90
Sequence of pnma1_human PNMA1, Q8ND90 (Q8ND90 whole entry): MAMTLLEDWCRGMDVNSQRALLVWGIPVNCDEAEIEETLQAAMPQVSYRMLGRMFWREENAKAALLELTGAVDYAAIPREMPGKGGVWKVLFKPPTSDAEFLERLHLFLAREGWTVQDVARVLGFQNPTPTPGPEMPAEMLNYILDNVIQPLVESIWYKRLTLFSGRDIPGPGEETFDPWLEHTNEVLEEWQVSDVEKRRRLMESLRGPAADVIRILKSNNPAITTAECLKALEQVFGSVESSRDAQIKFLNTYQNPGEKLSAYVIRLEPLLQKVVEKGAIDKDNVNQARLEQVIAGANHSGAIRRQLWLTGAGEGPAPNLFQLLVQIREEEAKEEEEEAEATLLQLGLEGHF

effect of a mutation on the interaction | Variant
with no effect | R41L

Variants of: B6
Details: with tri23_human TRIM23, P36406
Sequence of tri23_human TRIM23, P36406 (P36406 whole entry): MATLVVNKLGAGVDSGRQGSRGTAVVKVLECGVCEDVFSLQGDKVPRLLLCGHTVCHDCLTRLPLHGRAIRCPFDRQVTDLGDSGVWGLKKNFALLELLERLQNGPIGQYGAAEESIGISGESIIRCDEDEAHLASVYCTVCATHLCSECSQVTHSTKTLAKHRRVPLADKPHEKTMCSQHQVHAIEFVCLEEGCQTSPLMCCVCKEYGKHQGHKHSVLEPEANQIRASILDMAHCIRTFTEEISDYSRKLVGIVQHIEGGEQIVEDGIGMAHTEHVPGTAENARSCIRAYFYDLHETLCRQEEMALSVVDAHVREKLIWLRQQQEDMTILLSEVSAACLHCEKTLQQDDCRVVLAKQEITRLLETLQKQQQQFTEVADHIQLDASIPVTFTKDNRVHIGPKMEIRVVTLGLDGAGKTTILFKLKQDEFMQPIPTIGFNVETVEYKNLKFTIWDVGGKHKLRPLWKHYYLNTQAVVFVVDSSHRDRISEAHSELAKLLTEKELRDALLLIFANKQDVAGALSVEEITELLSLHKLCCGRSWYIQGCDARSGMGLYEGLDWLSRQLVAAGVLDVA

effect of a mutation on the interaction | Variant
with no effect | D56E

Variants of: B7
Details: with thiom_human TXN2, Q99757

effect of a mutation on the interaction | Variant
with no effect | L625F
